Source: the Immune Epitope Database (IEDB)
pKd: −log10 of the molar value.

Legend:
HLA-A*32:01 = experiment: IEDB peptide-MHC binding, purified MHC/competitive/radioactivity; filed as Kd, often an IC50 or EC50 that approximates it; ≥ and ≤ were set here for values at or beyond the usual limits of such assays
HLA-B*35:01 = experiment: as above
HLA-B*51:01 [1] = experiment: as above; settings: source organism: Dengue virus 4 Philippines/H241/1956
HLA-B*51:01 [2] = experiment: IEDB peptide-MHC binding, purified MHC/competitive/fluorescence; filed as Kd, often an IC50 or EC50 that approximates it; ≥ and ≤ were set here for values at or beyond the usual limits of such assays; settings: source organism: Listeria monocytogenes 10403S
HLA-A*02:06 = experiment: IEDB peptide-MHC binding, purified MHC/competitive/radioactivity; filed as Kd, often an IC50 or EC50 that approximates it; ≥ and ≤ were set here for values at or beyond the usual limits of such assays
HLA-A*02:03 = experiment: as above
HLA-A*30:01 = experiment: as above
HLA-A*02:02 = experiment: as above
HLA-B*08:01 = experiment: as above
HLA-B*53:01 = experiment: as above
HLA-B*15:01 = experiment: as above; settings: source organism: Vaccinia virus WR
HLA-B*18:01 = experiment: IEDB peptide-MHC binding, purified MHC/direct/fluorescence; filed as Kd, often an IC50 or EC50 that approximates it; ≥ and ≤ were set here for values at or beyond the usual limits of such assays
HLA-A*68:02 = experiment: IEDB peptide-MHC binding, purified MHC/competitive/radioactivity; filed as Kd, often an IC50 or EC50 that approximates it; ≥ and ≤ were set here for values at or beyond the usual limits of such assays
HLA-A*02:01 = experiment: IEDB peptide-MHC binding, purified MHC/competitive/fluorescence; filed as Kd, often an IC50 or EC50 that approximates it; ≥ and ≤ were set here for values at or beyond the usual limits of such assays; settings: source organism: Variola virus
HLA-B*40:01 = experiment: IEDB peptide-MHC binding, purified MHC/direct/fluorescence; filed as Kd, often an IC50 or EC50 that approximates it; ≥ and ≤ were set here for values at or beyond the usual limits of such assays; settings: source organism: Entamoeba histolytica HM-1:IMSS
[3] = source organism: Dengue virus 3 Martinique/1243/1999
[4] = source organism: Dengue virus 4 Philippines/H241/1956
[5] = source organism: Vaccinia virus WR
[6] = source organism: Dengue virus 1 Singapore/S275/1990
[7] = source organism: Dengue virus 3 Singapore/8120/1995
[8] = source organism: Dengue virus 2 Jamaica/1409/1983
[9] = source organism: Lassa virus GA391
[10] = source organism: Dengue virus 1 Brazil/97-11/1997
[11] = source organism: Lassa virus Josiah

Q: How did the pKd (HLA-A*32:01; [3]) turn out when LLVWHTWQKQ was run?
A: The pKd was at most 4.63.

Q: LPVYLMTLMK was tested. Which pKd (HLA-B*35:01; [4]) did it give?
A: The pKd was 6.48.

Q: And the pKd (HLA-B*51:01 [1])?
A: Its pKd is 5.15.

Q: How did the pKd (HLA-B*51:01 [2]) turn out when LSYEPDNIV was run?
A: The pKd was at most 4.70.

Q: LTLDIFYLF was tested. Which pKd (HLA-A*32:01; [5]) did it give?
A: The pKd was 8.36.

Q: Which results are given for LVKESMASL?
A: pKd (HLA-A*02:06; [5]): 6.87; pKd (HLA-A*02:03; [5]): 8.02; pKd (HLA-A*30:01; [5]): 7.02; pKd (HLA-A*02:02; [5]): 5.95

Q: How did the pKd (HLA-B*08:01; [6]) turn out when MAMVLSIVSL was run?
A: Its pKd is 6.08.

Q: How did the pKd (HLA-A*32:01; [5]) turn out when MILFLKLLI was run?
A: Its pKd is 6.15.

Q: MPGIFQTTTG was tested. Which pKd (HLA-B*35:01; [7]) did it give?
A: Its pKd is 5.93.

Q: What about the pKd (HLA-B*53:01; [7]) of the same sequence?
A: Its pKd is 6.26.

Q: How did the pKd (HLA-B*08:01; [5]) turn out when MRFKKESSL was run?
A: The pKd was 8.47.

Q: How did the pKd (HLA-B*08:01; [8]) turn out when MRGAKRMAI was run?
A: Its pKd is 8.61.

Q: What does the source list for MSIMPVLAY?
A: pKd (HLA-B*15:01): 8.86; pKd (HLA-A*32:01; [5]): 7.00

Q: MSKIKHKIF was tested. Which pKd (HLA-B*08:01; [5]) did it give?
A: Its pKd is 9.07.

Q: How did the pKd (HLA-A*30:01; [5]) turn out when MSRKFMQVY was run?
A: The pKd was 8.84.

Q: With NEAKVLELL as the sequence, how does the pKd (HLA-B*18:01; source organism: West Nile virus) read?
A: Its pKd is 7.42.

Q: With NISGYNFSL as the sequence, how does the pKd (HLA-A*02:06; [9]) read?
A: Its pKd is 6.83.

Q: And the pKd (HLA-A*02:03; [9])?
A: The pKd was 5.68.

Q: And the pKd (HLA-A*02:02; [9])?
A: The pKd was 7.14.

Q: And the pKd (HLA-A*68:02; [9])?
A: The pKd was 6.75.

Q: With NMHLKRSVF as the sequence, how does the pKd (HLA-B*08:01; [5]) read?
A: The pKd was 6.83.

Q: What does the source list for NSKSRICVI?
A: pKd (HLA-B*15:01): 5.85; pKd (HLA-B*08:01; [5]): 7.95

Q: How did the pKd (HLA-A*02:01) turn out when QLNMEKREV was run?
A: The pKd was 6.85.

Q: How did the pKd (HLA-A*32:01; [8]) turn out when QVLMMRTTW was run?
A: Its pKd is 7.13.

Q: How did the pKd (HLA-B*18:01; source organism: Salmonella enterica subsp. enterica serovar Typhimurium str. LT2) turn out when RERGLALHV was run?
A: The pKd was 5.35.

Q: REVEEIIKY was tested. Which pKd (HLA-B*18:01; source organism: Entamoeba histolytica HM-1:IMSS) did it give?
A: Its pKd is 7.60.

Q: What about the pKd (HLA-B*40:01) of the same sequence?
A: The pKd was 7.03.

Q: With RLIVLFEVF as the sequence, how does the pKd (HLA-B*15:01) read?
A: The pKd was 8.16.

Q: What about the pKd (HLA-A*32:01; [5]) of the same sequence?
A: Its pKd is 7.90.

Q: With RMRFKKGAV as the sequence, how does the pKd (HLA-B*08:01; [5]) read?
A: Its pKd is 8.27.

Q: RSTSLSVSLV was tested. Which pKd (HLA-A*68:02; [8]) did it give?
A: The pKd was 6.60.

Q: How did the pKd (HLA-A*02:06; [3]) turn out when RTATLILAGV was run?
A: Its pKd is 8.28.

Q: And the pKd (HLA-A*02:03; [3])?
A: Its pKd is 8.19.

Q: What about the pKd (HLA-A*68:02; [3]) of the same sequence?
A: The pKd was 9.59.

Q: How did the pKd (HLA-A*30:01; [5]) turn out when RTRGPLGIL was run?
A: Its pKd is 10.06.

Q: With RVHDTNATK as the sequence, how does the pKd (HLA-A*30:01; [5]) read?
A: Its pKd is 8.12.

Q: With RVKQISIST as the sequence, how does the pKd (HLA-A*30:01; source organism: Vaccinia virus Copenhagen) read?
A: The pKd was 9.43.

Q: SAVPVHWVPT was tested. Which pKd (HLA-A*32:01; [3]) did it give?
A: The pKd was 5.70.

Q: SGMVFTSPV was tested. Which pKd (HLA-B*08:01; [5]) did it give?
A: Its pKd is 7.11.

Q: How did the pKd (HLA-A*32:01; [4]) turn out when SKGWKNWQEV was run?
A: Its pKd is 4.70.

Q: How did the pKd (HLA-A*32:01; [10]) turn out when SKGWNDWQQV was run?
A: Its pKd is at most 4.25.

Q: With SPYYRNSVA as the sequence, how does the pKd (HLA-B*08:01; [5]) read?
A: The pKd was 6.95.

Q: How did the pKd (HLA-B*08:01; [5]) turn out when SRFKKVYIL was run?
A: The pKd was 7.12.

Q: SVNMISRMLI was tested. Which pKd (HLA-A*68:02; [8]) did it give?
A: The pKd was 6.63.

Q: How did the pKd (HLA-A*68:02; [10]) turn out when TTANISLTAI was run?
A: The pKd was 9.10.

Q: VAATMANEM was tested. Which pKd (HLA-B*35:01; [8]) did it give?
A: The pKd was 6.24.

Q: With VLIALSVLAV as the sequence, how does the pKd (HLA-A*02:06; [11]) read?
A: Its pKd is 6.89.

Q: And the pKd (HLA-A*02:03; [11])?
A: Its pKd is 7.91.

Q: What about the pKd (HLA-A*02:02; [11]) of the same sequence?
A: The pKd was 6.79.

Q: And the pKd (HLA-A*68:02; [11])?
A: Its pKd is 5.43.

Q: With WAFCEVLTL as the sequence, how does the pKd (HLA-B*35:01; [4]) read?
A: Its pKd is 6.24.

Q: How did the pKd (HLA-B*08:01; [4]) turn out when WAKNIHTAI was run?
A: The pKd was 7.63.

Q: How did the pKd (HLA-B*35:01; [6]) turn out when WATLLSLTF was run?
A: Its pKd is 6.90.

Q: What about the pKd (HLA-B*53:01; [6]) of the same sequence?
A: Its pKd is 8.39.

Q: WNTGFDWITD was tested. Which pKd (HLA-A*32:01; [4]) did it give?
A: The pKd was 5.94.

Q: With WTAGADTSEV as the sequence, how does the pKd (HLA-A*68:02; source organism: Dengue virus 4 Dominica/814669/1981) read?
A: The pKd was 7.54.

Q: How did the pKd (HLA-B*08:01; [4]) turn out when YRGAKRMAIL was run?
A: The pKd was 6.89.

Q: YRKYHVPIM was tested. Which pKd (HLA-B*08:01; [5]) did it give?
A: The pKd was 7.21.

Q: With YSAPFESEGV as the sequence, how does the pKd (HLA-A*68:02; [4]) read?
A: The pKd was 8.60.
